Assay results taken from patent publication US20060223059A1.
Where two headings read alike, the source gives them in different places.

Tests used:
[1] = system: T1, Boc-A-A-P-F-AMC
T1 sequence: AAPF

[2] = system: T2, Boc-V-P-R-AMC
T2 sequence: VPR

[3] = biological target: T3, Boc-V-P-R-AMC
T3 chain: VPR

[4] = biological target: T4, Boc-A-A-P-F-AMC
T4 chain: AAPF

Molecule: chymotrypsin
- hydrolysis of the fluorogenic peptide (release of AMC, arbitrary fluorescence counts) [1]: Chymotrypsin, as expected, effectively cleaved the peptide substrate in a dose-dependent fashion
- kinetic analysis, fluorescence counts at 30 sec intervals for 15 min [1]: Chymotrypsin activity increases with increasing concentrations and over time

Molecule: trypsin
- hydrolysis of the fluorogenic peptide (release of AMC, arbitrary fluorescence counts) [2]: Fluorescence counts increased, in a dose-dependent manner, with increased concentrations of each enzyme
- kinetic analysis, fluorescence counts at 30 sec intervals for 15 min [2]: kallikrein 14- and trypsin-mediated hydrolysis of V-P-R-AMC increases over time

B1: recombinant kallikrein 14 (without c-myc/His epitopes) (protein)
chain: IIGGHTCTRSSQPWQAALLAGPRRRFLCGGALLSGQWVITAAHCGRPILQVALGKHNLRRWEATQQVLRVVRQVTHPNYNSRTHDNDLMLLQLQQPARIGRAVRPIEVTQACASPGTSCRVSGWGTISSPIARYPASLQCVNINISPDEVCQKAYPRTITPGMVCAGVPQGGKDSCQGDSGGPLVCRGQLQGLVSWGMERCALPGYPGVYTNLCKYRSWIEETMRDK
- hydrolysis of the fluorogenic peptide (release of AMC, arbitrary fluorescence counts) [3]: recombinant kallikrein 14 is able to effectively cleave the trypsin substrate, V-P-R-AMC (SEQ ID NO. 30) at a similar efficiency as trypsin, the positive control
- kinetic analysis, fluorescence counts at 30 sec intervals for 15 min [3]: kallikrein 14- and trypsin-mediated hydrolysis of V-P-R-AMC increases over time
- hydrolysis of the fluorogenic peptide (release of AMC, arbitrary fluorescence counts) [4]: neither recombinant kallikrein 14 nor kallikrein 14^myc-His hydrolyzed the peptide at any of the concentrations used
- kinetic analysis, fluorescence counts at 30 sec intervals for 15 min [4]: kallikrein 14 produces only background fluorescence counts (identical to the negative control containing substrate only) at all concentrations throughout the experiment

B2: recombinant hK14^myc-His (protein)
chain: EAEFIIGGHTCTRSSQPWQAALLAGPRRRFLCGGALLSGQWVITAAHCGRPILQVALGKHNLRRWEATQQVLRVVRQVTHPNYNSRTHDNDLMLLQLQQPARIGRAVRPIEVTQACASPGTSCRVSGWGTISSPIARYPASLQCVNINISPDEVCQKAYPRTITPGMVCAGVPQGGKDSCQGDSGGPLVCRGQLQGLVSWGMERCALPGYPGVYTNLCKYRSWIEETMRDK
- hydrolysis of the fluorogenic peptide (release of AMC, arbitrary fluorescence counts) [3]: kallikrein 14^myc-His was not able to hydrolyze V-P-R-AMC to a significant extent and is not considered to be active
- hydrolysis of the fluorogenic peptide (release of AMC, arbitrary fluorescence counts) [4]: neither recombinant kallikrein 14 nor kallikrein 14^myc-His hydrolyzed the peptide at any of the concentrations used
